Measured values from US20200024330A1.

Tests used:
Assay in all cases: cell-based or functional assay
[1] = target: HIV-1 MGRM-D-018 envelope glycoprotein (Env), clade D (HIV-1)
[2] = target: HIV-1 MGRM-D-001 envelope glycoprotein (Env), clade D (HIV-1)
[3] = target: HIV-1 92TH021 envelope glycoprotein (Env), clade AE (HIV-1)
[4] = target: aMLV envelope protein (negative control virus)
[5] = target: HIV-1 92RW020 envelope glycoprotein (Env), clade A (HIV-1)
[6] = target: HIV-1 NL43 envelope glycoprotein (Env), clade B (HIV-1)
[7] = target: HIV-1 JRFL envelope glycoprotein (Env), clade B (HIV-1)
[8] = target: HIV-1 MGRM-C-028 envelope glycoprotein (Env), clade C (HIV-1)
[9] = target: HIV-1 92BR020 envelope glycoprotein (Env), clade B (HIV-1)
[10] = target: HIV-1 JRCSF envelope glycoprotein (Env), clade B (HIV-1) (UniProt P20871)
[11] = target: HIV-1 MGRM-A-010 envelope glycoprotein (Env), clade A (HIV-1)
[12] = target: HIV-1 93IN905 envelope glycoprotein (Env), clade C (HIV-1)
[13] = target: HIV-1 92UG005 envelope glycoprotein (Env), clade D (HIV-1)
[14] = target: HIV-1 93UG077 envelope glycoprotein (Env), clade A (HIV-1)
[15] = target: HIV-1 MGRM-C-026 envelope glycoprotein (Env), clade C (HIV-1)
[16] = target: HIV-1 APV13 envelope glycoprotein (Env), clade B (HIV-1)
[17] = target: HIV-1 MGRM-AG-005 envelope glycoprotein (Env), clade AG (HIV-1)
[18] = target: HIV-1 MGRM-C-027 envelope glycoprotein (Env), clade C (HIV-1)
[19] = target: HIV-1 94UG103 envelope glycoprotein (Env), clade A (HIV-1)
[20] = target: HIV-1 CMU02 envelope glycoprotein (Env), clade AE (HIV-1)
[21] = target: HIV-1 APV6 envelope glycoprotein (Env), clade B (HIV-1)
[22] = target: HIV-1 APV17 envelope glycoprotein (Env), clade B (HIV-1)
[23] = target: HIV-1 92UG024 envelope glycoprotein (Env), clade D (HIV-1)

B1: PGT-135 monoclonal antibody (clones 5343_B08 and 5344_E16) (antibody, V domains shown)
VH: QLQMQESGPGLVKPSETLSLSCTVSGDSIRGGEWGDKDYHWGWVRHSAGKGLEWIGSIHWRGTTHYKESLRRRVSMSIDTSRNWFSLRLASVTAADTAVYFCARHRHHDVFMLVPIAGWFDVWGPGVQVTVSS
VL: EIVMTQSPDTLSVSPGETVTLSCRASQNINKNLAWYQYKPGQSPRLVIFETYSKIAAFPARFVASGSGTEFTLTINNMQSEDVAVYYCQQYEEWPRTFGQGTKVDIK
IC50 (neutralization of pseudovirus) [1]: 0.0433 µg/mL
IC80 (neutralization of pseudovirus) [1]: 0.2 µg/mL
IC90 (neutralization of pseudovirus) [1]: > 10 µg/mL
IC95 (neutralization of pseudovirus) [1]: > 10 µg/mL
IC50 (neutralization of pseudovirus) [2]: > 10 µg/mL
IC80 (neutralization of pseudovirus) [2]: > 10 µg/mL
IC90 (neutralization of pseudovirus) [2]: > 10 µg/mL
IC95 (neutralization of pseudovirus) [2]: > 10 µg/mL
IC50 (neutralization of pseudovirus) [3]: > 10 µg/mL
IC80 (neutralization of pseudovirus) [3]: > 10 µg/mL
IC90 (neutralization of pseudovirus) [3]: > 10 µg/mL
IC95 (neutralization of pseudovirus) [3]: > 10 µg/mL
IC50 (neutralization of pseudovirus) [4]: > 10 µg/mL
IC80 (neutralization of pseudovirus) [4]: > 10 µg/mL
IC90 (neutralization of pseudovirus) [4]: > 10 µg/mL
IC95 (neutralization of pseudovirus) [4]: > 10 µg/mL
IC50 (neutralization of pseudovirus) [5]: 0.157 µg/mL
IC80 (neutralization of pseudovirus) [5]: 3.46 µg/mL
IC90 (neutralization of pseudovirus) [5]: > 10 µg/mL
IC95 (neutralization of pseudovirus) [5]: > 10 µg/mL
IC50 (neutralization of pseudovirus) [6]: 6.79 µg/mL
IC80 (neutralization of pseudovirus) [6]: > 10 µg/mL
IC90 (neutralization of pseudovirus) [6]: > 10 µg/mL
IC95 (neutralization of pseudovirus) [6]: > 10 µg/mL
IC50 (neutralization of pseudovirus) [7]: > 10 µg/mL
IC80 (neutralization of pseudovirus) [7]: > 10 µg/mL
IC90 (neutralization of pseudovirus) [7]: > 10 µg/mL
IC95 (neutralization of pseudovirus) [7]: > 10 µg/mL
IC50 (neutralization of pseudovirus) [8]: 2.16 µg/mL
IC80 (neutralization of pseudovirus) [8]: > 10 µg/mL
IC90 (neutralization of pseudovirus) [8]: > 10 µg/mL
IC95 (neutralization of pseudovirus) [8]: > 10 µg/mL
IC50 (neutralization of pseudovirus) [9]: 0.104 µg/mL
IC80 (neutralization of pseudovirus) [9]: 0.253 µg/mL
IC90 (neutralization of pseudovirus) [9]: 0.43 µg/mL
IC95 (neutralization of pseudovirus) [9]: 0.72 µg/mL
IC50 (neutralization of pseudovirus) [10]: 0.113 µg/mL
IC80 (neutralization of pseudovirus) [10]: 0.503 µg/mL
IC90 (neutralization of pseudovirus) [10]: 1.47 µg/mL
IC95 (neutralization of pseudovirus) [10]: 8.3 µg/mL
IC50 (neutralization of pseudovirus) [11]: > 10 µg/mL
IC80 (neutralization of pseudovirus) [11]: > 10 µg/mL
IC90 (neutralization of pseudovirus) [11]: > 10 µg/mL
IC95 (neutralization of pseudovirus) [11]: > 10 µg/mL
IC50 (neutralization of pseudovirus) [12]: 0.0183 µg/mL
IC80 (neutralization of pseudovirus) [12]: 0.0648 µg/mL
IC90 (neutralization of pseudovirus) [12]: 0.136 µg/mL
IC95 (neutralization of pseudovirus) [12]: 0.268 µg/mL
IC50 (neutralization of pseudovirus) [13]: > 10 µg/mL
IC80 (neutralization of pseudovirus) [13]: > 10 µg/mL
IC90 (neutralization of pseudovirus) [13]: > 10 µg/mL
IC95 (neutralization of pseudovirus) [13]: > 10 µg/mL
IC50 (neutralization of pseudovirus) [14]: > 10 µg/mL
IC80 (neutralization of pseudovirus) [14]: > 10 µg/mL
IC90 (neutralization of pseudovirus) [14]: > 10 µg/mL
IC95 (neutralization of pseudovirus) [14]: > 10 µg/mL
IC50 (neutralization of pseudovirus) [15]: 0.0123 µg/mL
IC80 (neutralization of pseudovirus) [15]: 0.0562 µg/mL
IC90 (neutralization of pseudovirus) [15]: 0.139 µg/mL
IC95 (neutralization of pseudovirus) [15]: 0.331 µg/mL
IC50 (neutralization of pseudovirus) [16]: 0.545 µg/mL
IC80 (neutralization of pseudovirus) [16]: > 10 µg/mL
IC90 (neutralization of pseudovirus) [16]: > 10 µg/mL
IC95 (neutralization of pseudovirus) [16]: > 10 µg/mL
IC50 (neutralization of pseudovirus) [17]: > 10 µg/mL
IC80 (neutralization of pseudovirus) [17]: > 10 µg/mL
IC90 (neutralization of pseudovirus) [17]: > 10 µg/mL
IC95 (neutralization of pseudovirus) [17]: > 10 µg/mL
IC50 (neutralization of pseudovirus) [18]: > 10 µg/mL
IC80 (neutralization of pseudovirus) [18]: > 10 µg/mL
IC90 (neutralization of pseudovirus) [18]: > 10 µg/mL
IC95 (neutralization of pseudovirus) [18]: > 10 µg/mL
IC50 (neutralization of pseudovirus) [19]: > 10 µg/mL
IC80 (neutralization of pseudovirus) [19]: > 10 µg/mL
IC90 (neutralization of pseudovirus) [19]: > 10 µg/mL
IC95 (neutralization of pseudovirus) [19]: > 10 µg/mL
IC50 (neutralization of pseudovirus) [20]: > 10 µg/mL
IC80 (neutralization of pseudovirus) [20]: > 10 µg/mL
IC90 (neutralization of pseudovirus) [20]: > 10 µg/mL
IC95 (neutralization of pseudovirus) [20]: > 10 µg/mL
IC50 (neutralization of pseudovirus) [21]: > 10 µg/mL
IC80 (neutralization of pseudovirus) [21]: > 10 µg/mL
IC90 (neutralization of pseudovirus) [21]: > 10 µg/mL
IC95 (neutralization of pseudovirus) [21]: > 10 µg/mL
IC50 (neutralization of pseudovirus) [22]: > 10 µg/mL
IC80 (neutralization of pseudovirus) [22]: > 10 µg/mL
IC90 (neutralization of pseudovirus) [22]: > 10 µg/mL
IC95 (neutralization of pseudovirus) [22]: > 10 µg/mL
IC50 (neutralization of pseudovirus) [23]: 0.0139 µg/mL
IC80 (neutralization of pseudovirus) [23]: 0.054 µg/mL
IC90 (neutralization of pseudovirus) [23]: 0.122 µg/mL
IC95 (neutralization of pseudovirus) [23]: 0.267 µg/mL
